Data as given in US10941182 (Amgen, dated 2021).
Starred links: 1 amine or outer side, 2 acyl side, 3 side chain; linkers in the order of their positions; H or OH if unused. Non-standard residues stand in square brackets, D forms with d. Primed or numbered codes have the meaning given here. *: point of attachment. NPipG = 2-(piperidin-4-ylamino)acetic acid, O=C(CN(C1CCN([*:3])CC1)[*:1])[*:2]; AC4Abu = α-carboxy-4-aminobutyric acid, O=C(C(CCN[*:1])C(=O)[*:3])[*:2]; dBip = N[C@H](Cc1ccc(-c2ccccc2)cc1)C(=O)O; Oic = O=C(O)[C@@H]1C[C@@H]2CCCC[C@@H]2N1; Phe(4-Cl) = N[C@@H](Cc1ccc(Cl)cc1)C(=O)O; Phe(4-I) = N[C@@H](Cc1ccc(I)cc1)C(=O)O; γGlu = O=C(O)[C@H](CCC(=O)[*:2])N[*:1]; HOOC(CH2)8CO = O=C(O)CCCCCCCCC(=O)*; d(β3hF) = N[C@@H](CC(=O)O)Cc1ccccc1; NMeR = CN[C@@H](CCCNC(=N)N)C(=O)O; Palmitoyl = CCCCCCCCCCCCCCCC(=O)*; Tridecanoyl = CCCCCCCCCCCCC(=O)*; hArg = N=C(N)NCCCC[C@H](N)C(=O)O; β3hF = N[C@H](CC(=O)O)Cc1ccccc1; Cha = N[C@@H](CC1CCCCC1)C(=O)O; NMeL = CN[C@@H](CC(C)C)C(=O)O; αMeL = CC(C)C[C@](C)(N)C(=O)O; β3hP = O=C(O)C[C@@H]1CCCN1; Nle = CCCC[C@H](N)C(=O)O; Orn = NCCC[C@H](N)C(=O)O; Pip′ = not defined here; AEEA = NCCOCCOCC(=O)O; Aib = CC(C)(N)C(=O)O

How the values were obtained:
human APJ receptor = molecular target: T1, human APJ receptor (human, UniProt P35414 1-380); assay: cell-based or functional assay
T1 sequence (looked up): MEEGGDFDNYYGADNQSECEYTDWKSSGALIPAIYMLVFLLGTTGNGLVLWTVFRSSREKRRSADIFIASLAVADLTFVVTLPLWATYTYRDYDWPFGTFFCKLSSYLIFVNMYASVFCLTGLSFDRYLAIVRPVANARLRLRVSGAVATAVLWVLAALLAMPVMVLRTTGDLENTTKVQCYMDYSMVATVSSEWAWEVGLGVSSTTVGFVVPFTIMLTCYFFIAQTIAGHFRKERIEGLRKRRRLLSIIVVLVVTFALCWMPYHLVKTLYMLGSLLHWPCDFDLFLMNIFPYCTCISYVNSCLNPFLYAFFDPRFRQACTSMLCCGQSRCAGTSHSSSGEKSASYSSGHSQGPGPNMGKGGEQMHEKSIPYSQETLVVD

rat APJ receptor = molecular target: T2, rat APJ receptor (rat, UniProt Q9JHG3 1-377); assay: cell-based or functional assay
T2 sequence (looked up): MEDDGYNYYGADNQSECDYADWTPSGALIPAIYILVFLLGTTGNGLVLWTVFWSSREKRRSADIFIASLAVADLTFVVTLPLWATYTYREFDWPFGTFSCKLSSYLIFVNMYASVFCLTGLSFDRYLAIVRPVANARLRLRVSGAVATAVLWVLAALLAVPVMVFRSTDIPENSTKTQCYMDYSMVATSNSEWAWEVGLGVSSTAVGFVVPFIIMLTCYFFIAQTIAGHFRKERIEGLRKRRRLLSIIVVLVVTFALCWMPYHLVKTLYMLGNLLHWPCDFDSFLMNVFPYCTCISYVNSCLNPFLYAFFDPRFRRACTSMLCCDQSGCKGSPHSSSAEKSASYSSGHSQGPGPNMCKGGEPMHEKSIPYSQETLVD

Binder	EC50 Human APJ Receptor (human APJ receptor)	EC50 Rat APJ Receptor (rat APJ receptor)
{HOOC(CH2)8CO}-[γGlu][AEEA][AEEA]Q[hArg]P[dR][NMeL]SHKG[Oic][Phe(4-I)]P[dBip]-OH (SMILES CC(C)C[C@@H](C(=O)N[C@@H](CO)C(=O)N[C@@H](Cc1c[nH]cn1)C(=O)N[C@@H](CCCCN)C(=O)NCC(=O)N1[C@H](C(=O)N[C@@H](Cc2ccc(I)cc2)C(=O)N2CCC[C@H]2C(=O)N[C@H](Cc2ccc(-c3ccccc3)cc2)C(=O)O)C[C@@H]2CCCC[C@@H]21)N(C)C(=O)[C@@H](CCCNC(=N)N)NC(=O)[C@@H]1CCCN1C(=O)[C@H](CCCCNC(=N)N)NC(=O)[C@H](CCC(N)=O)NC(=O)COCCOCCNC(=O)COCCOCCNC(=O)CC[C@H](NC(=O)CCCCCCCCC(=O)O)C(=O)O) [SEQ ID NO: 288]	38600 pM	38500 pM
Tridecanoyl-[AC4Abu][AC4Abu][dQ]RP[NMeR][Cha]SHKG[Oic][Nle][Aib][Phe(4-Cl)]-OH (SMILES CCCCCCCCCCCCC(=O)NCCC(C(=O)O)C(=O)NCCC(C(=O)O)C(=O)N[C@H](CCC(N)=O)C(=O)N[C@@H](CCCNC(=N)N)C(=O)N1CCC[C@H]1C(=O)N(C)[C@@H](CCCNC(=N)N)C(=O)N[C@@H](CC1CCCCC1)C(=O)N[C@@H](CO)C(=O)N[C@@H](Cc1c[nH]cn1)C(=O)N[C@@H](CCCCN)C(=O)NCC(=O)N1[C@H](C(=O)N[C@@H](CCCC)C(=O)NC(C)(C)C(=O)N[C@@H](Cc2ccc(Cl)cc2)C(=O)O)C[C@@H]2CCCC[C@@H]21) [SEQ ID NO: 533]	629 pM	3880 pM
XXXQRPRLSHKGPXPF ({PDA}[AC4Abu][Aeea][Aeea]QRP[NMeArg]LSHKGP[Nle]P[4-Cl-F]{COOH}) [SEQ ID NO: 495]	83 pM	532 pM
Palmitoyl-[AC4Abu][AEEA][AEEA][dQ]RP[NMeR][Cha]SHKG[Pip′][Nle]P[β3hF]-OH [SEQ ID NO: 647]	1580 pM	5830 pM
XXXQRPRLSHKGPXPF ({Sebacicacid}[AC4Abu][Aeea][Aeea]QRP[NMeArg]LSHKGP[Nle]P[4-Cl-F]{COOH}) [SEQ ID NO: 509]	179 pM	864 pM
Tridecanoyl-[AC4Abu][AEEA][AC4Abu][dQ]RP[NMeR][Cha]SHKG[Oic][Nle][Aib][Phe(4-Cl)]-OH (SMILES CCCCCCCCCCCCC(=O)NCCC(C(=O)O)C(=O)NCCOCCOCC(=O)NCCC(C(=O)O)C(=O)N[C@H](CCC(N)=O)C(=O)N[C@@H](CCCNC(=N)N)C(=O)N1CCC[C@H]1C(=O)N(C)[C@@H](CCCNC(=N)N)C(=O)N[C@@H](CC1CCCCC1)C(=O)N[C@@H](CO)C(=O)N[C@@H](Cc1c[nH]cn1)C(=O)N[C@@H](CCCCN)C(=O)NCC(=O)N1[C@H](C(=O)N[C@@H](CCCC)C(=O)NC(C)(C)C(=O)N[C@@H](Cc2ccc(Cl)cc2)C(=O)O)C[C@@H]2CCCC[C@@H]21) [SEQ ID NO: 536]	592 pM	2030 pM
XXXXXXXQRPRLSHKGPXPF ({TDA}[AC4Abu][Aeea][Aeea][Aeea][Aeea][Aeea][Aeea]QRP[NMeArg]LSHKGP[Nle]P[4-Cl-F]{COOH}) [SEQ ID NO: 398]	57.4 pM	116 pM
Tridecanoyl-[γGlu][AEEA][AEEA][αMeL]RP[NMeR][αMeL]SHKG[Oic][Nle]P[Phe(4-Cl)]-OH (SMILES CCCCCCCCCCCCC(=O)N[C@@H](CCC(=O)NCCOCCOCC(=O)NCCOCCOCC(=O)N[C@@](C)(CC(C)C)C(=O)N[C@@H](CCCNC(=N)N)C(=O)N1CCC[C@H]1C(=O)N(C)[C@@H](CCCNC(=N)N)C(=O)N[C@@](C)(CC(C)C)C(=O)N[C@@H](CO)C(=O)N[C@@H](Cc1c[nH]cn1)C(=O)N[C@@H](CCCCN)C(=O)NCC(=O)N1[C@H](C(=O)N[C@@H](CCCC)C(=O)N2CCC[C@H]2C(=O)N[C@@H](Cc2ccc(Cl)cc2)C(=O)O)C[C@@H]2CCCC[C@@H]21)C(=O)O) [SEQ ID NO: 375]	155 pM	288 pM
XXXQRPRLSHKGPXPF ({TDA}[AC4Abu][AC4Abu][Aeea]QRP[NMeArg]LSHKGP[Nle]P[4-Cl-F]{COOH}) [SEQ ID NO: 462]	15.4 pM	79.2 pM
Palmitoyl-[AC4Abu][AEEA][AEEA][dQ]RP[NPipG][Cha]SHKG[Pip′][Nle][Aib][Phe(4-Cl)]-OH [SEQ ID NO: 645]	254 pM	394 pM
Tridecanoyl-[AC4Abu][AC4Abu][AEEA][dQ]RP[NMeR][Cha]SHKG[Oic][Nle][Aib][Phe(4-Cl)]-OH (SMILES CCCCCCCCCCCCC(=O)NCCC(C(=O)O)C(=O)NCCC(C(=O)O)C(=O)NCCOCCOCC(=O)N[C@H](CCC(N)=O)C(=O)N[C@@H](CCCNC(=N)N)C(=O)N1CCC[C@H]1C(=O)N(C)[C@@H](CCCNC(=N)N)C(=O)N[C@@H](CC1CCCCC1)C(=O)N[C@@H](CO)C(=O)N[C@@H](Cc1c[nH]cn1)C(=O)N[C@@H](CCCCN)C(=O)NCC(=O)N1[C@H](C(=O)N[C@@H](CCCC)C(=O)NC(C)(C)C(=O)N[C@@H](Cc2ccc(Cl)cc2)C(=O)O)C[C@@H]2CCCC[C@@H]21) [SEQ ID NO: 535]	798 pM	5140 pM
Palmitoyl-[γGlu][AEEA][AEEA][dQ]RP[NMeR][Cha]SH[Orn]G[Oic][Nle][β3hP][d(β3hF)]-OH (SMILES CCCCCCCCCCCCCCCC(=O)N[C@@H](CCC(=O)NCCOCCOCC(=O)NCCOCCOCC(=O)N[C@H](CCC(N)=O)C(=O)N[C@@H](CCCNC(=N)N)C(=O)N1CCC[C@H]1C(=O)N(C)[C@@H](CCCNC(=N)N)C(=O)N[C@@H](CC1CCCCC1)C(=O)N[C@@H](CO)C(=O)N[C@@H](Cc1c[nH]cn1)C(=O)N[C@@H](CCCN)C(=O)NCC(=O)N1[C@H](C(=O)N[C@@H](CCCC)C(=O)N2CCC[C@H]2CC(=O)N[C@@H](CC(=O)O)Cc2ccccc2)C[C@@H]2CCCC[C@@H]21)C(=O)O) [SEQ ID NO: 618]	2460 pM	11100 pM
Tridecanoyl-[AC4Abu][AC4Abu][AEEA][AEEA][dQ]RP[NMeR][Cha]SHKG[Oic][Nle][Aib][Phe(4-Cl)]-OH (SMILES CCCCCCCCCCCCC(=O)NCCC(C(=O)O)C(=O)NCCC(C(=O)O)C(=O)NCCOCCOCC(=O)NCCOCCOCC(=O)N[C@H](CCC(N)=O)C(=O)N[C@@H](CCCNC(=N)N)C(=O)N1CCC[C@H]1C(=O)N(C)[C@@H](CCCNC(=N)N)C(=O)N[C@@H](CC1CCCCC1)C(=O)N[C@@H](CO)C(=O)N[C@@H](Cc1c[nH]cn1)C(=O)N[C@@H](CCCCN)C(=O)NCC(=O)N1[C@H](C(=O)N[C@@H](CCCC)C(=O)NC(C)(C)C(=O)N[C@@H](Cc2ccc(Cl)cc2)C(=O)O)C[C@@H]2CCCC[C@@H]21) [SEQ ID NO: 534]	683 pM	3750 pM
XXXQRPRLSHKGPXPF ({pIFBu}[AC4Abu][Aeea][Aeea]QRP[NMeArg]LSHKGP[Nle]P[4-Cl-F]{COOH}) [SEQ ID NO: 118]	47.5 pM	172 pM
{HOOC(CH2)8CO}-[γGlu][AEEA][AEEA][hArg]Q[hArg]P[NMeR][Cha]SHKG[Oic][Nle]P[Phe(4-Cl)]-OH (SMILES CCCC[C@H](NC(=O)[C@@H]1C[C@@H]2CCCC[C@@H]2N1C(=O)CNC(=O)[C@H](CCCCN)NC(=O)[C@H](Cc1c[nH]cn1)NC(=O)[C@H](CO)NC(=O)[C@H](CC1CCCCC1)NC(=O)[C@H](CCCNC(=N)N)N(C)C(=O)[C@@H]1CCCN1C(=O)[C@H](CCCCNC(=N)N)NC(=O)[C@H](CCC(N)=O)NC(=O)[C@H](CCCCNC(=N)N)NC(=O)COCCOCCNC(=O)COCCOCCNC(=O)CC[C@H](NC(=O)CCCCCCCCC(=O)O)C(=O)O)C(=O)N1CCC[C@H]1C(=O)N[C@@H](Cc1ccc(Cl)cc1)C(=O)O) [SEQ ID NO: 474]	1140 pM	3760 pM
XXXXQRPRLSHKGPXPF ({TDA}[AC4Abu][AC4Abu][Aeea][Aeea]QRP[NMeArg]LSHKGP[Nle]P[4-Cl-F]{COOH}) [SEQ ID NO: 399]	33.5 pM	104 pM
